Experimental data taken from US20260176352A1 (BIRD ROCK BIO, published 2026).

Columns and labels:
[1] = target: T1, native full length human CB1 receptor (cannabinoid 1 receptor) (human, UniProt P21554 1-472); experiment: cell-based or functional assay
mouse CB1 = target: T2, mouse CB1 (mouse, UniProt P47746 1-473); experiment: flow cytometry on cells expressing the target
T2 construct: whole, on cells; also called TRexCHO Mouse CB1

[2] = target: 5HT2B (expression cell line) (Homo sapiens (Human), UniProt P41595 1-481); experiment: flow cytometry on cells expressing the target
5HT2B (expression cell line), sequence (P41595 whole entry): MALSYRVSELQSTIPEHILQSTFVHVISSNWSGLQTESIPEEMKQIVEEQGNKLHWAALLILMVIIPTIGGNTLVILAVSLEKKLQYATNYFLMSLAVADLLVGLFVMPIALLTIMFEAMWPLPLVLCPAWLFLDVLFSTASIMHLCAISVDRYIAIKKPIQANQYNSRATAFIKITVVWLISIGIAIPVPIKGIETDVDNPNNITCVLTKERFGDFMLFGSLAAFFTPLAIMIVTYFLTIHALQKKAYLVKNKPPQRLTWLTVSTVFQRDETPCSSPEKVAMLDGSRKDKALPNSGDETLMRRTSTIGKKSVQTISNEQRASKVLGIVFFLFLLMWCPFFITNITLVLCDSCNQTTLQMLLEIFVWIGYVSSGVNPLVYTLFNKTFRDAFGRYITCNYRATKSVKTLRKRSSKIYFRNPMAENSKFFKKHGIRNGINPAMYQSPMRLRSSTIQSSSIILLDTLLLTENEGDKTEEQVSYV

human CB2 = target: T3, human CB2 (human, UniProt P34972 1-360); experiment: flow cytometry on cells expressing the target
T3 construct: whole, on cells; also called TRexCHO Human CB2
T3 sequence (P34972 whole entry): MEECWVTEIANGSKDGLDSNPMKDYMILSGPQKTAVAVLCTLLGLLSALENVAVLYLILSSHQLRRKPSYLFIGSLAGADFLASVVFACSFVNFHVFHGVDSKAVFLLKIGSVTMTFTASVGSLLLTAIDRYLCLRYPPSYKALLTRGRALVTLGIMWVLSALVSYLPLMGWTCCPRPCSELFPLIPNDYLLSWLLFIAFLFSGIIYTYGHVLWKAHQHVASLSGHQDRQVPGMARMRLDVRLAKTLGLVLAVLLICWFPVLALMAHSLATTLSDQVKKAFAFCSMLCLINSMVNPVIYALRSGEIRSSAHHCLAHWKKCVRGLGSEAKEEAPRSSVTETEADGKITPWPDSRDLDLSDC

[3] = target: T1, native full length human CB1 receptor …; experiment: flow cytometry, Fab on TRex-CHO human CB1 cells

T1 sequence (P21554 whole entry): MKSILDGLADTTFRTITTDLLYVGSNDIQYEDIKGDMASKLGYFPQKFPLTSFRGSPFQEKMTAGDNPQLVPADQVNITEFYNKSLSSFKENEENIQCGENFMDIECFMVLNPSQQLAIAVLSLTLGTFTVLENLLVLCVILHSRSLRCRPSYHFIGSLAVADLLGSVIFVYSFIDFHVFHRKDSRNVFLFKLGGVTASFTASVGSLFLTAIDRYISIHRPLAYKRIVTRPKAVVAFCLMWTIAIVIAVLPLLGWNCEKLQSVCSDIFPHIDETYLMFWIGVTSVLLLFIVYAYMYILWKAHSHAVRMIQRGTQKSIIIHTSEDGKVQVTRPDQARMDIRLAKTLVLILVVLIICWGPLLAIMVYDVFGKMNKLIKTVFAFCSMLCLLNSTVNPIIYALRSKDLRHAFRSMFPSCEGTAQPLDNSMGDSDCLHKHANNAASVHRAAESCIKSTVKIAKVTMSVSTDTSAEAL
T2 sequence (P47746 whole entry): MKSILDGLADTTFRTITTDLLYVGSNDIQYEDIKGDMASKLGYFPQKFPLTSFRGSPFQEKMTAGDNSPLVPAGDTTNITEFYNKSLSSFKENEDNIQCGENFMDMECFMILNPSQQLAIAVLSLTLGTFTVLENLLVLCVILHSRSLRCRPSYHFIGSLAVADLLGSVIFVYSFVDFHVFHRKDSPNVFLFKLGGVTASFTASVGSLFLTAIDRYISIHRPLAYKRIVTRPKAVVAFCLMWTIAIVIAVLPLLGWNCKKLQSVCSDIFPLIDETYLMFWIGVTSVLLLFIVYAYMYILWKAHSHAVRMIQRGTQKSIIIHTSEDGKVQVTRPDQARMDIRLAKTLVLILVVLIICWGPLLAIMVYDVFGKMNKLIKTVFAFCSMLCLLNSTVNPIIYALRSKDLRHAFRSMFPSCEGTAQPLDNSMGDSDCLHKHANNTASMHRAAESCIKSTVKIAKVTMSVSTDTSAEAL

- IC50 cAMP assay [1]: 427 nM
- binding result (mouse CB1): no binding (tested: 1 µM)
- binding result [2]: no binding (tested: 1 µM)
- binding result (human CB2): no binding (tested: 1 µM)
- Kd [3]: 130 nM
B1: PA13R3-P1C4 Fab (Fab, V domains shown)
VH: EVQLQQSGAELVRPGVSVKISCKASGYEFSYYWMNWVKQRPGQGLEWIGQIYPGDGETKYNGKFKGKATLTADKSSNTAYMQLSSLTSEDSAVYFCARSHGNYLPYWGQGTLVTVSA
VL: DIVLTQSPAIMSASLGERVTMTCTASSSVSSSYLHWYQQKPGSSPKLWIYSTSNLASGVPARFSGSGSGTSYSLTISSMEAEDAATYYCHQYHRSPPTFGAGTKLELK
notes: also called Chimeric P1C4 Fab
